{"source": "patent US20240042018A1", "about": "(University of Washington, published 2024)", "binders": {"B1": {"name": "I53_dn5A_1C5kPEG pentamer (designed binder)", "chain": "MGKYDGSKLRIGILHARGNAEIILALVLGALKRLQEFGVKRENIIIETVPGSFELPYGSKLFVEKQKRLGKPLDAIIPIGVLIRGSTPHFDYIADSTTHQLMKLNFELGIPVIFGVITADTCEQAEARAGLIEGKMHNHGEDWGAAAVEMATKFNGGWELQLEGSHHHHHH"}, "B2": {"name": "I53_dn5A_D120C pentamer coupled to 1 kDa PEG (designed binder)", "chain": "MGKYDGSKLRIGILHARGNAEIILALVLGALKRLQEFGVKRENIIIETVPGSFELPYGSKLFVEKQKRLGKPLDAIIPIGVLIRGSTPHFDYIADSTTHQLMKLNFELGIPVIFGVITADTCEQAEARAGLIEGKMHNHGEDWGAAAVEMATKFNGGWELQLEGSHHHHHH"}, "B3": {"name": "I53_dn5A_D120C pentamer coupled to 2 kDa PEG (designed binder)", "chain": "MGKYDGSKLRIGILHARGNAEIILALVLGALKRLQEFGVKRENIIIETVPGSFELPYGSKLFVEKQKRLGKPLDAIIPIGVLIRGSTPHFDYIADSTTHQLMKLNFELGIPVIFGVITADTCEQAEARAGLIEGKMHNHGEDWGAAAVEMATKFNGGWELQLEGSHHHHHH"}, "B4": {"name": "I53_dn5A_2C2kPEG pentamer (designed binder)", "chain": "MGKYDGSKLRIGILHARGNAEIILALVLGALKRLQEFGVKRENIIIETVPGSFELPYGSKLFVEKQKRLGKPLDAIIPIGVLIRGCTPHFDYIADSTTHQLMKLNFELGIPVIFGVITADTCEQAEARAGLIEGKMHNHGEDWGAAAVEMATKFNGGWELQLEGSHHHHHH"}, "B5": {"name": "I53_dn5A_S84C_D120C pentamer coupled to 1 kDa PEG (designed binder)", "chain": "MGKYDGSKLRIGILHARGNAEIILALVLGALKRLQEFGVKRENIIIETVPGSFELPYGSKLFVEKQKRLGKPLDAIIPIGVLIRGCTPHFDYIADSTTHQLMKLNFELGIPVIFGVITADTCEQAEARAGLIEGKMHNHGEDWGAAAVEMATKFNGGWELQLEGSHHHHHH"}, "B6": {"name": "I53_dn5A_2gly pentamer (designed binder)", "chain": "KYDGSKLRIGILHARGNAEIILELVLGALKRLQEFGVKRENIIIETVPGSFELPYGSKLFVEKQKRLGKPLDAIIPIGVLIRGNDTHFDYIADSTTHQLMKLNFELGIPVIFGVLTTNSTEQAEERAGTKAGNHGEDWGAAAVEMATKFNLEEQKLISEEDLHHHHHH"}, "B7": {"name": "I53_dn5Acp7 PAS pentamer (designed binder)", "chain": "MGSHHHHHHGSDEQAEERAGTKAGNHGEDWGAAAVEMATKFNGSGGSGKYDGSKLRIGILHARGNAEIILELVLGALKRLQEFGVKRENIIIETVPGSFELPYGSKLFVEKQKRLGKPLDAIIPIGVLIRGSTAHFDYIADSTTHQLMKLNFELGIPVIFGVLTTESGGSASPAAPAPASPAAPAPSAPAAASPAAPAPASPAAPAPSAPAAASPAAPAPASPAAPAPSAPAA"}}, "key": {"[1]": {"target": "T1, H1MI15-I53_dn5B trimer (A/Michigan/45/2015 HA 1-676 Y98F no lkr dn5B.SA.WELQ-H) (influenza A virus H1/A/Michigan/45/2015 …)", "test": "in vitro nanoparticle assembly, SEC"}, "[2]": {"target": "T1, H1MI15-I53_dn5B trimer …", "test": "in vitro nanoparticle assembly, SEC and SDS-PAGE"}, "[3]": {"target": "T1, H1MI15-I53_dn5B trimer …", "test": "in vitro nanoparticle assembly; SEC, DLS, nsTEM"}, "[4]": {"target": "T1, H1MI15-I53_dn5B trimer …", "test": "in vitro nanoparticle assembly"}}}
{"binder": "B1", "values": [{"measurement": "binding result", "setting": "[1]", "value": "binds"}]}
{"binder": "B2", "values": [{"measurement": "binding result", "setting": "[2]", "value": "binds"}]}
{"binder": "B3", "values": [{"measurement": "binding result", "setting": "[2]", "value": "binds"}]}
{"binder": "B4", "values": [{"measurement": "binding result", "setting": "[3]", "value": "binds"}]}
{"binder": "B5", "values": [{"measurement": "binding result", "setting": "[3]", "value": "binds"}]}
{"binder": "B6", "values": [{"measurement": "binding result", "setting": "[4]", "value": "binds"}]}
{"binder": "B7", "values": [{"measurement": "binding result", "setting": "[3]", "value": "binds"}]}
